Source: publication PMC12750270, “Design and Preclinical Evaluation of a ^68Ga-Labeled Macrocyclic Peptide PET Probe Targeting Transferrin Receptor 1 in Colorectal Cancer” (ACS Omega, 2025)

B1: ^68Ga-NOTA-TR01 (peptide)
peptide: AVFVWNYYIIRRYYCK
modifications: cyclo(Ac-Ala1 ... Cys15) as printed; N-terminal Ac; NMe-Tyr at position 14; PEG12 between Cys15 and the C-terminal Lys; NOTA on the Lys, holding ^68Ga
B2: NOTA-TR01 [cyclo(Ac-Ala-Val-Phe-Val-Trp-Asn-Tyr-Tyr-Ile-Ile-Arg-Arg-Tyr-NMe-Tyr-Cys)-PEG12-Lys-NOTA] (peptide)
peptide: AVFVWNYYIIRRYYCK
modifications: cyclo(Ac-Ala1 ... Cys15) as printed; N-terminal Ac; NMe-Tyr at position 14; PEG12 between Cys15 and the C-terminal Lys; NOTA on the Lys
notes: the 15-residue macrocycle, printed in three-letter code; position 14 is N-methyl-Tyr; C-terminal Lys that carries NOTA; joined to Cys15 through a PEG12 spacer (no amino acids); a thioether from an N-terminal chloroacetyl group is only surmised; also called unlabeled TR01; unlabeled NOTA-TR01; source: synthetic peptide, custom synthesized by A+ Peptide (Shanghai, China), >95% purity

What was measured:
[1] = molecular target: Transferrin Receptor 1 (TfR1/CD71) on human colorectal cancer cells (HT29: high expression); LOVO: low … (human (endogenous in HT29 and LOVO), UniProt P02786 1-760); experiment: cell-based or functional assay
Chain of Transferrin Receptor 1 (TfR1/CD71) on human colorectal cancer cells (HT29: high expression); LOVO: low … (P02786 whole entry): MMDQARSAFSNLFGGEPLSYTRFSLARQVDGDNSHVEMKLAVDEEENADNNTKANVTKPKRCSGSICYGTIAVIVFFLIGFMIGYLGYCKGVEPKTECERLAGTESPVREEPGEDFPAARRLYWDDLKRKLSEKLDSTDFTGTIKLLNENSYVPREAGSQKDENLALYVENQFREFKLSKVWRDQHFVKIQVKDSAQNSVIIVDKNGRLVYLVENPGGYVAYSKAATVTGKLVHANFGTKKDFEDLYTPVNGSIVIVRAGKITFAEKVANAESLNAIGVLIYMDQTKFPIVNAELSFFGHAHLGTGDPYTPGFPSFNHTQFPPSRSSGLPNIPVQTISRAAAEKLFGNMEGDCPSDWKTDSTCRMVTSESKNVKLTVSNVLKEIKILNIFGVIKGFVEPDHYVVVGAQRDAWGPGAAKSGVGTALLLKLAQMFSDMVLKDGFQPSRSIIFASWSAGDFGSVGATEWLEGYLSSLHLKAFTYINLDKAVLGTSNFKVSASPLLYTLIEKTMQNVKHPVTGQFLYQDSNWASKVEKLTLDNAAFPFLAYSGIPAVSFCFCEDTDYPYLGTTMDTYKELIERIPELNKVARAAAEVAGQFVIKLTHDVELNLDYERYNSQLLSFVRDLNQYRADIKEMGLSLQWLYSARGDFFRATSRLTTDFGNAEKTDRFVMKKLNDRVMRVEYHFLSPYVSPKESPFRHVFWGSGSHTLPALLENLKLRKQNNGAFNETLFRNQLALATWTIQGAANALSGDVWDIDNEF

[2] = molecular target: T1, Recombinant human TfR1-Fc protein (TFR-H5264, Acro Biosystems) (human, UniProt P02786 101-760); experiment: SPR; Biacore 8K; recombinant human TfR1-Fc immobilized on the sensor chip; TR01 at 62.5–1,000 nM; as printed: 'acidic conditions (pH 2.0) using a running buffer containing TfR1 at 30 μg/mL'; global fit of association and dissociation curves; conditions: both partners purified
T1 construct: Transferrin receptor 1 (TfR1/CD71), human; As recalled, the supplier's TfR1 constructs hold the extracellular part (about Cys89-Phe760); source: bought: Acro Biosystems
T1 sequence (P02786 101-760): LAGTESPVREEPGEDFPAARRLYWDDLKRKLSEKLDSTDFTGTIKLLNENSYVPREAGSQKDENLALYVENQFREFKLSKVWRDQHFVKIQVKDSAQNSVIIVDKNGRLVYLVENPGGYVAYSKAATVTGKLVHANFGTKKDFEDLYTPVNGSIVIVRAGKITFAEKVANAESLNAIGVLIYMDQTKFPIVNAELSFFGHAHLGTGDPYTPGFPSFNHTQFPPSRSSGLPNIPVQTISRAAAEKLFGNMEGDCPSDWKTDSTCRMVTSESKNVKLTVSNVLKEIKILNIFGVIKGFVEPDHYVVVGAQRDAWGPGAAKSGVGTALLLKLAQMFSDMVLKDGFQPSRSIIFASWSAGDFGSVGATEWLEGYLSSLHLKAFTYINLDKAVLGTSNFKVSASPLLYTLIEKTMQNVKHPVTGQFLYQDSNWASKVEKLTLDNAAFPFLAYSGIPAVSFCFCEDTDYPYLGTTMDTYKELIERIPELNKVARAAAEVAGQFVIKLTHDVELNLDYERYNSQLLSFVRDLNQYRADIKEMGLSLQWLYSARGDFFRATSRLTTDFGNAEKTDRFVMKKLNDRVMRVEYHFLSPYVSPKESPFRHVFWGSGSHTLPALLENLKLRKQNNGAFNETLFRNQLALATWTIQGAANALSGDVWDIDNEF

Row | Binder | biodistribution: tumor-to-muscle (T/M) ratio in HT29 tumor-bearing mice, 30 to 120 min postinjection (3.73, 5.10, 9.18) [1] | biodistribution: tumor-to-muscle (T/M) ratio in LOVO-bearing mice (low TfR1), 30 to 120 min postinjection (2.30, 3.16, 5.01) [1] | tumor-to-muscle (T/M) ratio in HT29 xenografts by micro-PET/CT with coinjection of excess unlabeled NOTA-TR01, 30 to 120 min (0.47, 0.45, 0.86) [1] | tumor-to-muscle (T/M) ratio in HT29 xenografts by micro-PET/CT, 30 to 120 min postinjection (2.79, 3.98, 7.88) [1] | tumor-to-muscle (T/M) ratio in LOVO xenografts (low TfR1) by micro-PET/CT, 30 to 120 min postinjection (1.65, 2.30, 2.94) [1] | Kd [2] | koff [2] | kon [2]
1 | B1 | 9.18 | 5.01 | 0.86 | 7.88 | 2.94 | – | – | –
2 | B2 | – | – | – | – | – | 22.3 nM | 0.00173 s⁻¹ | 77300 M⁻¹ s⁻¹
